Test results: publication PMC9060518

Biological target: KCNQ5-ER-c

- block of KCNQ2/5-tandem currents by 10 mM TEA in HEK293T cells: 48 % block
Substance: KCNQ2-ER-n (from UniProt O43526)
